Results: patent publication US20190389914A1 (University of California, published 2019)

Tests used:
[1] = molecular target: GAL4 activation domain fusion to HAB1^!-3 (pACT-HAB1^!-3; D204A in HAB1^!-2) (Arabidopsis thaliana (Mouse-ear cress)) (UniProt Q9CAJ0); assay: Y2H, mandipropamid (FIG. 5)
[2] = molecular target: GAL4 activation domain fusion to HAB1 (pACT-HAB1), wild type (Arabidopsis thaliana (Mouse-ear cress)) (UniProt Q9CAJ0); assay: Y2H, mandipropamid (FIG. 6)
[3] = molecular target: GAL4 activation domain fusion to HAB1^V393R (Arabidopsis thaliana (Mouse-ear cress)) (UniProt Q9CAJ0); assay: Y2H, ABA, beta-gal staining (FIG. 1)
[4] = molecular target: T1, 6x-His-PYR1 (recombinant wild type, E. coli) (Arabidopsis, UniProt O49686 1-191); assay: pull-down on His-tag resin, SDS-PAGE (FIG. 8)
T1 construct: Previously constructed (Park et al., 2009); also called 6×-His-PYR1; wild type PYR1; not shown: 6x-His tag
T1 sequence: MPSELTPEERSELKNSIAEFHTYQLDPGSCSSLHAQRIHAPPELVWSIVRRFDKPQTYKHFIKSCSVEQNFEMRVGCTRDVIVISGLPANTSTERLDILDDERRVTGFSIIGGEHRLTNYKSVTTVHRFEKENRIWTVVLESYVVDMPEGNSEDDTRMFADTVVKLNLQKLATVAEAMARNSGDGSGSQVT

[5] = molecular target: T2, GAL4 activation domain fusion to HAB1^V393R (Arabidopsis thaliana (Mouse-ear cress), UniProt Q9CAJ0 4-511); assay: Y2H, mandipropamid (FIG. 3)
T2 construct: Mutant of the pACT-HAB1 template, which lacks the three N-terminal amino acids of HAB1; Denoted HAB1^!
T2 sequence: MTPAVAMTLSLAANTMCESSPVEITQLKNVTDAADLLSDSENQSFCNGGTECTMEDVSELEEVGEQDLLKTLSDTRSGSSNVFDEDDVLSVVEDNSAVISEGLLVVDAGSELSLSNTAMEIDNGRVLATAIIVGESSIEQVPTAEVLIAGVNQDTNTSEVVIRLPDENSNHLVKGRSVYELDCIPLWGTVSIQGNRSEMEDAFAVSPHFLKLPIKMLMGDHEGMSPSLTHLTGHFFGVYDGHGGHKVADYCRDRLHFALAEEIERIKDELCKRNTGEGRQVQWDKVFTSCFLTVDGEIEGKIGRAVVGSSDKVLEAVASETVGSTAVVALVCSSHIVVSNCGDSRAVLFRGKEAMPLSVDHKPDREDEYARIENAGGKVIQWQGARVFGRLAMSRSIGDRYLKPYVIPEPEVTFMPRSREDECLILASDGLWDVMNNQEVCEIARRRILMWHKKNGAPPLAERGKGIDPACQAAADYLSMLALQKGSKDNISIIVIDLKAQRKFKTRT

[6] = molecular target: T3, GAL4 activation domain fusion to HAB1^!-2 (pACT-HAB1^!-2; HAB1^V393R/R505A) (Arabidopsis thaliana (Mouse-ear cress), UniProt Q9CAJ0 4-511); assay: Y2H, mandipropamid (FIG. 3)
T3 construct: R505A introduced into the pACT clone carrying V393R; the pACT-HAB1 template lacks the three N-terminal amino acids of HAB1; also called HAB^!-2
T3 sequence: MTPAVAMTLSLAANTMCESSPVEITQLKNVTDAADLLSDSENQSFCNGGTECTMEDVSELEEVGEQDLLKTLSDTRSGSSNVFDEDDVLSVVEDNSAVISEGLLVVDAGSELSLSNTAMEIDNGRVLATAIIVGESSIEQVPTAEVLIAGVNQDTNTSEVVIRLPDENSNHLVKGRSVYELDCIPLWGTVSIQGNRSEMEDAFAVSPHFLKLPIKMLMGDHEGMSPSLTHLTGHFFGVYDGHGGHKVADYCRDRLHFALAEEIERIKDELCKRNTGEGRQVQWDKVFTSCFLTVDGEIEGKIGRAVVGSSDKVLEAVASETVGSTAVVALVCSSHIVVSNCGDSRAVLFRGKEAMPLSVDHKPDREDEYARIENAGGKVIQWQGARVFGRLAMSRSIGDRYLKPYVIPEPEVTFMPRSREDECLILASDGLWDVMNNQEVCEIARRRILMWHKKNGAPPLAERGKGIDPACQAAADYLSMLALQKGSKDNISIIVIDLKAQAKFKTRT

Molecule: GAL4 DNA binding domain fusion to PYR1*^-MANDI (PYR1^Y58H;K59R;V81I;F108A;S122G;M158I;F159V;A160V;T162D) (from UniProt P04386 1-147) (receptor)
- fold less sensitive to mandipropamid relative to HAB1^!-2 [1]: 10 fold
- fold less sensitivity to mandipropamid than the orthogonal interaction [2]: 10 fold

Molecule: GAL4 DNA binding domain fusion to PYR1^T162D (from UniProt P04386 1-147) (receptor)
- fold less sensitive to ABA than wild type pBD-PYR1/pACT-HAB1 control cells [3]: 4 fold

B1: GST-HAB1* (recombinant, E. coli) (enzyme)
chain: MTPAVAMTLSLAANTMCESSPVEITQLKNVTDAADLLSDSENQSFCNGGTECTMEDVSELEEVGEQDLLKTLSDTRSGSSNVFDEDDVLSVVEDNSAVISEGLLVVDAGSELSLSNTAMEIDNGRVLATAIIVGESSIEQVPTAEVLIAGVNQDTNTSEVVIRLPDENSNHLVKGRSVYELDCIPLWGTVSIQGNASEMEAAFAVSPHFLKLPIKMLMGDHEGMSPSLTHLTGHFFGVYDGHGGHKVADYCRDRLHFALAEEIERIKDELCKRNTGEGRQVQWDKVFTSCFLTVDGEIEGKIGRAVVGSSDKVLEAVADETVGSTAVVALVCSSHIVVSNCGDSRAVLFRGKEAMPLSVDHKPDREDEYARIENAGGKVIQWQGARVFGRLAMSRSIGDRYLKPYVIPEPEVTFMPRSREDECLILASDGLWDVMNNQEVCEIARRRILMWHKKNGAPPLAERGKGIDPACQAAADYLSMLALQKGSKDNISIIVIDLKAQAKFKTRT
notes: Cloned into pGEX-4T-1; not shown: glutathione S-transferase (GST) of pGEX-4T-1
- binding result [4]: no binding

B2: GAL4 DNA binding domain fusion to PYR1^!-MANDI (PYR1^Y58H;K59R;V81I;F108A;S122G;F159L;T162D) (receptor, not shown: small tags and cut ends)
chain: MPSELTPEERSELKNSIAEFHTYQLDPGSCSSLHAQRIHAPPELVWSIVRRFDKPQTHRHFIKSCSVEQNFEMRVGCTRDIIVISGLPANTSTERLDILDDERRVTGASIIGGEHRLTNYKGVTTVHRFEKENRIWTVVLESYVVDMPEGNSEDDTRMLADDVVKLNLQKLATVAEAMARNSGDGSGSQVT
notes: Septuple mutant; also called pBD-PYR1^!-MANDI
- fold less sensitive to mandipropamid than the PYR1^MANDI/HAB1 interaction [5]: ~100 fold
- fold less sensitive to mandipropamid than the PYR1^MANDI/HAB1 interaction [6]: ~100 fold
